Here are results for 2 molecules from US20150025225A1 (SHIONOGI, published 2015).

In assay [1] the target is T1, cynomolgus monkey EL-C2 tag (cynomolgus monkey, UniProt Q9Y5X9 21-500 (human entry), limits assumed).
T1 chain: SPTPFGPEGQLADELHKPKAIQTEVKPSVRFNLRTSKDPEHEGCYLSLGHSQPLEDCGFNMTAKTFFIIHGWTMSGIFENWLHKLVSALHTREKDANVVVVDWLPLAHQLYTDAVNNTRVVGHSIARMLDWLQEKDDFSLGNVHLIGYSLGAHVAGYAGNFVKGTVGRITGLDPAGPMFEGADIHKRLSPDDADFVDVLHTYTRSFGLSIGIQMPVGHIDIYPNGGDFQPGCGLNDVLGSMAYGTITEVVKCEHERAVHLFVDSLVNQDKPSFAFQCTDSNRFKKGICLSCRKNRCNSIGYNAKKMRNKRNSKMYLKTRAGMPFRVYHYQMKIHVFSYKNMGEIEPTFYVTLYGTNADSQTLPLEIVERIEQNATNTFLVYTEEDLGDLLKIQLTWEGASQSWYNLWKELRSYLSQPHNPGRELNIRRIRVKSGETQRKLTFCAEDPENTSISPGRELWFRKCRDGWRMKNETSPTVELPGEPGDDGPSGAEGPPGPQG
The experiment in a line: cell-based or functional assay.

The target of assay [2] is T2, human EL[331-459]-mouse EL-C2 tag (human/mouse chimera, UniProt Q9WVG5 21-500 (mouse entry)).
T2 chain: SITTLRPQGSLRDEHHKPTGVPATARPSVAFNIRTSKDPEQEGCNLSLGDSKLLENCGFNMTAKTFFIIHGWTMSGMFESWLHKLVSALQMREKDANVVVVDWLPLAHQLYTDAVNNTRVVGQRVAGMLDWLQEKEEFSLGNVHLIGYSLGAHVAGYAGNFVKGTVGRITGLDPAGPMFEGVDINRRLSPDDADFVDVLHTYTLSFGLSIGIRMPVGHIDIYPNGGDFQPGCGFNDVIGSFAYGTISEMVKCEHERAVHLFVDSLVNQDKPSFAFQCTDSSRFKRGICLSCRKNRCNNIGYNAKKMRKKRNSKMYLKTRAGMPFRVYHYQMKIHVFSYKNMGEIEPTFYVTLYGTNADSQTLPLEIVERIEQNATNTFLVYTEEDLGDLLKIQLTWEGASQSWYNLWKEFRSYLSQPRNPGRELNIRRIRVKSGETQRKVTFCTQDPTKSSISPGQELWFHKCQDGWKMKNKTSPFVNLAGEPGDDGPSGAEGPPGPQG
The experiment in a line: cell-based or functional assay.

Assay [3] has as its target T3, rabbit EL-C2 tag (rabbit).
T3 chain: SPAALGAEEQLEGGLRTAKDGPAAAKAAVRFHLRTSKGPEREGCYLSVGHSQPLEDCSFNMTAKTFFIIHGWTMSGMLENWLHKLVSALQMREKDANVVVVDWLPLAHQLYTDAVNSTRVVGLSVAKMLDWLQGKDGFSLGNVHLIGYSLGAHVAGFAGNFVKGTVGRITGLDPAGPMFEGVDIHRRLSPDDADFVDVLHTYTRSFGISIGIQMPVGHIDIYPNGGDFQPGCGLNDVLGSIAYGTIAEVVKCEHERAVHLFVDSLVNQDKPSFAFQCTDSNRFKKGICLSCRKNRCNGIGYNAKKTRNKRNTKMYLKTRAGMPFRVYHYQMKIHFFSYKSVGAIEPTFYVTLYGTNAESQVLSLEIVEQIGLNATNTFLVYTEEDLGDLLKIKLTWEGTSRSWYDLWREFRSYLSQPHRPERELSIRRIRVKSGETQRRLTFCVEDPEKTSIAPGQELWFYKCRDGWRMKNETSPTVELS
The experiment in a line: cell-based or functional assay.

Assay [4] has as its target T4, Baboon EL-C2 tag (baboon, UniProt Q9Y5X9 21-500 (human entry), limits assumed).
T4 chain: T1 chain with A12E, G141E
The experiment in a line: cell-based or functional assay.

Assay [5] has as its target T1, cynomolgus monkey EL-C2 tag. As to the kind of experiment: Biacore SPR; EL heparin extract captured by anti-C2-tag antibody on CM5, antibody as analyte, bivalent fit. The protocol:
(§1) The binding affinities of anti-EL antibodies were measured using Biacore. Anti-C2-tag antibody was immobilized on a sensor chip CM5 (GE HealthCare) using amine-coupling and baboon EL heparin extract or cynomolgus monkey heparin extract diluted with HBS-P (GE Healthcare) was added and EL were captured on the sensor chip. Then anti-EL antibodies diluted with HBS-P were added and the binding affinities were calculated by bivalent fitting of BIAevaluation software (FIG. 9A-G).

Assay [6] concerns the target T4, Baboon EL-C2 tag. Described as above. On the procedure: as §1
Assay [7] concerns the target T5, human EL-411-459 fragment (human).
T5 construct: Used as HEK293 lysate
T5 chain: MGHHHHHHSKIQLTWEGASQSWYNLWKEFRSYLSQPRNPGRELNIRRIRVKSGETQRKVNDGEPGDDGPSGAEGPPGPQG
As to the kind of experiment: sandwich ELISA with human EL fragment lysate, as Example 10.

For assay [8], the target named is T1, cynomolgus monkey EL-C2 tag. As to the kind of experiment: ELISA-type titration, A450 against antibody concentration; protocol not described in the text.
Assay [9] concerns the target T2, human EL[331-459]-mouse EL-C2 tag. Described as above.
Assay [10] deals with T3, rabbit EL-C2 tag. Described as above.
Assay [11] concerns the target T4, Baboon EL-C2 tag. Described as above.
Assay [12] addresses T1, cynomolgus monkey EL-C2 tag. The experiment in a line: Biacore SPR; EL captured by anti-C2-tag antibody, antibody as analyte, bivalent fit; column head prints nM, kd/ka gives M. The protocol: as §1
Assay [13] addresses T4, Baboon EL-C2 tag. The assay is described as above. On the procedure: as §1
Assay [14] concerns the target T1, cynomolgus monkey EL-C2 tag. The experiment in a line: ELISA-type titration, A450 against antibody concentration; protocol not described in the text.

Changes are numbered by the printed parent chain. Like-named read-outs stand apart in the source and are kept apart here.

B1: 3B1 antibody (antibody, IgG1, V domains shown)
VH: QVTLKESGPGILQPSQTLSLTCSFSGFSLSTSGVGVGWIRQPSGKGLEWLAHIWWNDNKYYNTALKSRLTISKDTSNNQVFLKIASVDTADTATYFCARSYDGYPFDYWGQGTLVTVSA
VL: DIQMTQSPSSLSASLGGKVTITCKASQDINKYIVWYQHKPGKGPRLLIHHTSTLQPGIPSRFSESGSGRDYSFSISNLEPEDIASYYCLQYDTLLWTFGGGTKLEIR
With B1, the “Neutralizing activity_IC50” value in [1] stood at 6.2 nM; in assay [2], 18 nM; in the assay with rabbit EL-C2 tag [3], 207 nM; with Baboon EL-C2 tag [4], 6.6 nM. For the same molecule, the off-rate (koff) in assay [5] was determined as 9.9e-05 s⁻¹; with Baboon EL-C2 tag [6], 0.00014 s⁻¹. Moreover, the kon in assay [5] is 180000 M⁻¹ s⁻¹; in the assay with Baboon EL-C2 tag [6] it was 93000 M⁻¹ s⁻¹. Further, the binding result in assay [7] is given as “binds”. The “EC50 (read off the curve)” value in assay [8] is approximately 0.006 µg/mL; in [9], approximately 0.03 µg/mL; with rabbit EL-C2 tag [10], approximately 0.02 µg/mL; in the assay with Baboon EL-C2 tag [11], approximately 0.02 µg/mL. Further, the Kd in assay [12] came out at 0.55 nM; with Baboon EL-C2 tag [13], 1.5 nM.

B2: 41H8 antibody (antibody, IgG1, V domains shown)
VH: QVTLKESGPGILQPSQTLSLTCSFSGFSLSTYGMGVGWIRQPSGKGLEWLAHIWWNENKYYNTDLKSRLTISKDTSNNQVFLKIASVDTADTATYYCARIGPGVPFDYWGQGTTITVSS
VL: B1 VL with Y32F, V34A, H50Y, S63N, E64G, S74T, S85T, T93I, L95T, R107K
As for B2, the “Neutralizing activity_IC50” value in [1] is 5.9 nM; in [2], 15 nM; with rabbit EL-C2 tag [3], 391 nM; with Baboon EL-C2 tag [4] it was 7.2 nM. Further, the koff in [5] turned out to be 0.0001 s⁻¹; with Baboon EL-C2 tag [6], 0.00029 s⁻¹. Also, the results for the kon (in assay [5]; in the assay with Baboon EL-C2 tag [6]) were 160000 M⁻¹ s⁻¹ and 110000 M⁻¹ s⁻¹, respectively. For the same molecule, the binding result in assay [7] was “no binding”. Besides, the “EC50 (read off the curve)” value in assay [14] is approximately 0.007 µg/mL. For the same molecule, the Kd in assay [12] came to 0.63 nM; with Baboon EL-C2 tag [13], 2.6 nM.
